Here are results for one molecule from patent US20260125649A1, “MEDIUM COMPOSITION AND METHOD FOR CULTURING MESENCHYMAL STEM CELLS” (ACADEMIA SINICA, priority 2018, published 2026).

The subject of this test is HMGA2. In words: HMGA2 expression and nuclear translocation (Western blotting, immunofluorescence, qPCR). Type of test: cell-based, human. The following applies: EpEX 3 μg/mL. Here is the method: MSCs were treated with EpEX (3 μg/mL), and the expression of HMGA2 was detected by immunofluorescence staining. […] To detect the binding of HMGA2 to Oct4 promoters, cross-linked DNA was isolated and then amplified with specific primers by qPCR. […] The gene expression of HMGA2 is detected by qPCR. MSCs were treated with let-7 mimetic and then treated with EpEX (3 μg/mL) for 12 h. The protein abundance of HMGA2 was examined by Western blotting.
Total RNA was extracted using TRI reagent (Invitrogen, CA, USA), and 5 μg of total RNA was reverse transcribed using oligo (dT) primer (Fermentas, Glen Burnie, MD, USA) with SuperScript III reverse transcriptase (Invitrogen). Quantitative real time RT-PCR (qPCR) was performed on cDNA using the Light Cycler 480 SYBR Green I Master kit (Roche Applied Science, Indianapolis, IN) and the LightCycler480 System (Roche Applied Science). The gene expression levels of each sample were normalized to the expression levels of glyceraldehyde 3-phosphate dehydrogenase (GAPDH).
Western blotting was performed as previously described (Takahashi et al., 2003). Cells were lysed in lysis buffer (150 mM NaCl, 50 mM Tris-HCl (pH 7.4), 1% Nonidet P-40), containing a protease inhibitor mix (Roche Applied Science). […]

B1: EpEX: extracellular domain of human EpCAM, 265 amino acids in length (SEQ ID NO: 2) (protein, listed as Homo sapiens)
chain: MAPPQVLAFGLLLAAATATFAAAQEECVCENYKLAVNCFVNNNRQCQCTSVGAQNTVICSKLAAKCLVMKAEMNGSKLGRRAKPEGALQNNDGLYDPDCDESGLFKAKQCNGTSMCWCVNTAGVRRTDKDTEITCSERVRTYWIIIELKHKAREKPYDSKSLRTALQKEITTRYQLDPKFITSILYENNVITIDLVQNSSQKTQNDVDIADVAYYFEKDVKGESLFHSKKMDLTVNGEQLDLDPGQTLIYYVDEKAPEFSMQGLK
On to B1, for which the “level of HMGA2” value is reported as “induced”. For the same molecule, under “Western blotting and immunofluorescent staining”, the HMGA2 nuclear translocation entry was “induced”.
